Patent US20110263827A1 (AbbVie / Abbott, published 2011)
“And” between values parts separate entries of the source, which are not always exact repeats. Equal values may be shown once.

Assays:
Assay in all cases: direct bind ELISA, ref Ab
HGF = target: T1, HGF (UniProt P14210 32-728, limits assumed, biotinylated)
T1 construct: ELISA antigen
Procedure: (§1) Enzyme Linked Immunosorbent Assays to screen for antibodies that bind a desired target antigen are performed as follows. […] Plates are washed once with PBS containing 0.05% Tween-20. […] Plates are washed once after blocking with PBS containing 0.05% Tween-20.
(§2) Fifty microliters per well of, e.g., mouse sera, hybridoma supernatants, or antibody or DVD-Ig preparations diluted in PBS containing 0.1% Bovine Serum Albumin (BSA) (Sigma, St. Louis, Mo.) is added to the ELISA plate prepared as described above and incubated for 1 hour at room temperature. Wells are washed three times with PBS containing 0.05% Tween-20. […] Plates are washed 3 times with PBS containing 0.05% Tween-20. […] Plates are washed 3 times with PBS containing 0.05% Tween-20. Fifty microliters of TMB solution (Sigma #T0440, St. Louis, Mo.) is added to each well and incubated for 10 minutes at room temperature. The reaction is stopped by addition of 1N sulphuric acid. Plates are read spectrophotmetrically at a wavelength of 450 nm.

PLGF = target: T2, PLGF (UniProt P49763-2 21-149, limits assumed, biotinylated)
T2 construct: ELISA antigen; also called P1GF
T2 sequence (looked up): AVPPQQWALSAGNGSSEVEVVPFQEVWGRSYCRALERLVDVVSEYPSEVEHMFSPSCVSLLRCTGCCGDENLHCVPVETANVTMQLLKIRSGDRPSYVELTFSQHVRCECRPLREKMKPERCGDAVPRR
Procedure: as §1, §2

DLL-4 = target: T3, DLL-4 (UniProt Q9NR61 27-524, limits assumed, biotinylated)
T3 construct: ELISA antigen
Procedure: as §1, §2

VEGF = target: T4, VEGF (UniProt P15692-4 27-191, limits assumed, biotinylated)
T4 construct: ELISA antigen
Procedure: as §1, §2

B1: AB012 (antibody, V domains shown)
VH: QVQLVESGGGLVKPGGSLRLSCAASGFTFSDYYMSWIRQAPGKGLEWVSYISSSGSTIYYADSVKGRFTISRDNAKNSLYLQMNSLRAEDTAVYYCARDEYNSGWYVLFDYWGQGTLVTVSS
VL: DIQMTQSPSSVSASVGDRVTITCRASQGISSWLAWYQQKPGKAPNLLIYEASSLQSGVPSRFGGSGSGTDFTLTISSLQPEDFATYYCQQANGFPWTFGQGTKVEIKR
notes: parent antibody; also called HGF
Q: With B1 as the binder, how does the EC50 (HGF) read?
A: 0.15 nM and 0.19 nM

B2: AB047 (antibody, V domains shown)
VH: QVQLQQSGAELVKPGASVKISCKASGYTFTDYYINWVKLAPGQGLEWIGWIYPGSGNTKYNEKFKGKATLTIDTSSSTAYMQLSSLTSEDTAVYFCVRDSPFFDYWGQGTLLTVSS
VL: DIVLTQSPDSLAVSLGERVTMNCKSSQSLLNSGMRKSFLAWYQQKPGQSPKLLIYWASTRESGVPDRFTGSGSGTDFTLTISSVQAEDVAVYYCKQSYHLFTFGSGTKLEIKR
notes: parent antibody; also called PLGF; P1GF (ThromboGenix)
Q: With B2 as the binder, how does the EC50 (PLGF) read?
A: 0.21 nM and 0.25 nM

B3: AB015 (antibody, V domains shown)
VH: EVQLVESGGGLVQPGGSLRLSCAASGFTFTDNWISWVRQAPGKGLEWVGYISPNSGFTYYADSVKGRFTISADTSKNTAYLQMNSLRAEDTAVYYCARDNFGGYFDYWGQGTLVTVSS
VL: DIQMTQSPSSLSASVGDRVTITCRASQDVSTAVAWYQQKPGKAPKLLIYSASFLYSGVPSRFSGSGSGTDFTLTISSLQPEDFATTYYCQQSYTGTVTFGQGTKVEIKR
notes: parent antibody; also called DLL-4
Q: B3 was tested. Which EC50 (DLL-4) did it give?
A: 0.45 nM and 0.4 nM

B4: AB071 (antibody, V domains shown)
VH: EVQLVESGGGLVQPGGSLRLSCAASGFTINASWIHWVRQAPGKGLEWVGAIYPYSGYTNYADSVKGRFTISADTSKNTAYLQMNSLRAEDTAVYYCARWGHSTSPWAMDYWGQGTLVTVSS
VL: DIQMTQSPSSLSASVGDRVTITCRASQVIRRSLAWYQQKPGKAPKLLIYAASNLASGVPSRFSGSGSGTDFTLTISSLQPEDFATYYCQQSNTSPLTFGQGTKVEIKR
notes: parent antibody
Q: B4 was tested. Which EC50 (VEGF) did it give?
A: 1.68 nM and 1.57 nM
